The subject of the series is GST-p21.

Here are results for two substances from patent publication US20160324936.

As to “GFP-tagged kinase dead (K67M) mutant of PIM-1 (GFP-PIM-DN)”, the “in vitro kinase assay: 32P-labeling of GST-p21, SDS-PAGE and autoradiography” value is recorded as “this activity was abolished in the Pim-DN construct”.

On to “GFP-tagged wild-type 34 kDa human PIM-1 (GFP-PIM-wt)”, for which the “in vitro kinase assay: 32P-labeling of GST-p21, SDS-PAGE and autoradiography” value is given as “Pim-wt overexpression phosphorylates p21”.
